Experimental findings from article PMC7503452 are described below.

Among the targets are A3H Hap VII (human, UniProt Q6NTF7 1-200, G105R); A3H Hap II (human, UniProt Q6NTF7 1-181, G105R;K121D;E178D); A3H Hap I K117E (human, UniProt Q6NTF7 1-200, K117E); A3H Hap I K117E/K121E (human, UniProt Q6NTF7 1-200, K117E;K121E).
Test in all cases: fluorescence anisotropy
For orientation: In fluorescence polarisation assays a small probe gives low polarisation when free and higher when bound to something large.

A3H Hap I K117E/K121E, sequence (Q6NTF7 whole entry K117E/K121E): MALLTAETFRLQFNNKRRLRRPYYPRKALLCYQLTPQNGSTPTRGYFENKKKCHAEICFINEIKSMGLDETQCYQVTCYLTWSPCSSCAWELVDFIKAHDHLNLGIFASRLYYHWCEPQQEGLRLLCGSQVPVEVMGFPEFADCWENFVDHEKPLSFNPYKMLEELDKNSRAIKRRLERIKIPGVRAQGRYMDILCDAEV
A3H Hap VII, sequence (Q6NTF7 whole entry G105R): as the sequence (Q6NTF7 whole entry K117E/K121E) above, with G105R, E117K, E121K counted along it
A3H Hap I K117E, sequence (Q6NTF7 whole entry K117E): as the sequence (Q6NTF7 whole entry K117E/K121E) above, with E121K counted along it
A3H Hap II, sequence (Q6NTF7 1-181 G105R/K121D/E178D): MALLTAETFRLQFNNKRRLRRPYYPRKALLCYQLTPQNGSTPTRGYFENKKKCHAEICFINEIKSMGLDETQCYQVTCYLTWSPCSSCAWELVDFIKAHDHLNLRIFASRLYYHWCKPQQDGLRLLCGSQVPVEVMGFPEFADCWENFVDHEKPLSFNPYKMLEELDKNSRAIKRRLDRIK

B1: 118-nt ssDNA (ssDNA)
DNA: GAATATAGTTTTTAGCTCAAAGTAAGTGAAGATAATTTAGAGAGTTGTAATGTGATATATGTGTATGAAAGATATAAGACTCAAAGTGAAAAGTTGTTAATGTGTGTAGATATGTTAA
modifications: internal fluorescein-dT at position 37
As usually defined, the Kd is the constant that tells how readily two partners part at equilibrium. A lower Kd goes with tighter binding. For B1, the Kd was found to be 522 ± 4 nM with A3H Hap VII, 492 ± 28 nM with A3H Hap II, 3000 ± 1770 nM with A3H Hap I K117E and 1240 ± 88 nM with A3H Hap I K117E/K121E.
